# Variants at the floor of the assay were thinned out.
# B1: TPR 5TU (parent)
# chain: GGAUCUUCUCGAUCUAACAAAAAAGACAAAUCUGCCACAAAGCUUGAGAGCAUCUUCGGAUGCAGAGGCGGCAGCCUUCGGUGGCGCGAUAGCGCCAACGUUCUCAACUAUGACACGCAAAACGCGUGCUCCGUUGAAUGGAGUUUAUCAUG
# Variants of: B1
# Assay: polymerase ribozyme fitness, log enrichment relative to wild type (log ratio); higher = more active; in vitro selection for triplet polymerase activity
# In short: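 Each subunit of a heterodimeric triplet polymerase ribozyme was represented by a PCR-built, transcribed mutant library that underwent triplicate single-round in vitro selection with frozen incubation at −7 °C. Extended constructs were recovered by gel excision, streptavidin-bead capture and RT-PCR, and Illumina sequencing of input and output libraries kept genotypes with ≥10 input reads and ≥1 read per output. Fitness is the logarithm of genotype enrichment relative to wild-type enrichment, from inverse-variance-weighted replicate averages, with a logarithm base of 2.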
row,Variant,polymerase ribozyme fitness (log ratio)
1,GGAUCUUCUCGAUCUAACAAAAAAGACAAAUCUGCCACAAAGCUUGAGAGCAUCUUCGGAUGCAGAGGCGGCAGCCUUCGGUGGGGCGAUAGCGCCAGCGUUCUCAACUAUGACACGCAAAACGCGUGCUCCGUUGAAUGGAGUUUAUCAUG [C85G A98G],-0.929
2,GGAUCUUCUCGAUCUAACAGAAAAGACAAAUCUGCCACAAAGCUUGAGAGCAUUUUCGGAUGCAGAGGCGGCAGCCUUCGGUGGCGCGAUAGCGCCAACGUUCUCAUCUAUGACACGCAGAACGCGUGCUCCGUUGAAUGGAGUUUAUCAUG [A20G C54U A107U A120G],-3.56
3,GGAUCUUCUCGAUUUAACAAAAAAGACAAAUCUGCCACAAAGCUUGAGAGCAUCUUCGGAUGCAGAGGCGGCAGCCUUCGGUGGCUCGAUAGCGCCAACGUUCUCAACUAUGACACGCAAAACGCGUGCUCCGUUGAAUGGAGUUUAUCAUG [C14U G86U],-3.21
4,GGAUCUUCUCGAUCUAACAAAAAAGACAAAUCUGCCACAAAGCUUGAGAGCAUCUUCGGAUGCAGAGGCGGCAGCCUUCGGUGGCGCGAUAUCGCCAACGUUGUCAACUAUGACACGCAAAACGCGUGCUCCGUUGAAUGGAGUUUAUCAUG [G92U C103G],-3.77
5,GGAUCUUCUCGAUCUAACAAAAAAGACAAAUCUGCCACAAAGCUUGAGAGCAUCUUCGGAUGCAGAGGCGGCAGCCUUAGGUGGCGCGAUAGCGCCAACGUUCUCAACUAUGACACGCAAAACGCGUGCUCCGUUGAAUGCAGUUUAUCAUG [C79A G141C],-3.95
6,GGAUCUUCUCGAUCUAACAAAAAAGUCAAAGCUGCUACAAAGCUUGAGAGCAUCUUCGGAUGCAGAGGCGGCAGCCUUCGUUGGCGCGAUAGCGCCAACGUUCUCAACUAUGACACGCAAAACGCGUGCUCCGUUGAAUGGAGUUUAUGAUG [A26U U31G C36U G81U C149G],≤ -4.2
7,GGAUCUUCUCGAUCUAACAAAUAAGACAAAUCUGCCACAAAGCUAGAGAGCAUCUUUAUAUGCAGAGGCGGCAGCCUUCGGUGGCGAGAUAGCGCCAACGUUCUCAACUAUGACACGCAAAACGCGUGCUCCGUUGAAUGGAGUUUAUCAUG [A22U U45A C57U G58A G59U C87A],≤ -4.2
8,GGAUCUUCUCGAUGUAACAAAAAAGACAAAUCUGCCACAAAGCUUGAGAGCAUCUUCGGAUGCAGAGGCGGCAGCCUUCGGUGGCGCGUUAGCGCCAACGUUCUCAACUAUGACACGCAAAACGCGUGCUCCGUUGAAUGGAGUUUAUCAUG [C14G A89U],-2.66
9,GGAUCUUCUCGAUUUAACAAAAAAGACAAAUCUGCCACAAAGCUUGAGAGCAUCUUCGGAUGCAGAGGCGGCAGCCUUCGGUGGCGCGAUGGCGCCAACGUUCUCAACUAUGACAUGCAAAACGCGUGCUCCGAUGAAUGGAGUUUAUCAUG [C14U A91G C116U U134A],≤ -4.2
10,GGAUCUUCUCGAUCUAACAAAAAAGACAAUUAUGCCACAAAGCUUGAGAGCAUUUUCGGAUGCAGAGGCGGCAGCCUUCGGUGGCGAGAUAGCGCCAACGUUCUCAUCUAUGACACGCAAAACGCGUGCUCCGUUGAAUGGAGUUUAUCAUG [A30U C32A C54U C87A A107U],≤ -4.2
11,GGAUCUUCUCGAUCUAACAAAAAAGACAAAUCUGGCACAUAGCUUGAGAGCAUCUUCGGAUGCAGAGGCGACAGCCUUCGGUGGCGUGAUAGCGCCAACGUUCUCAACUAUGACACGCAAAACGCGUGCUCCGUUUAAUGGAGUUUAGCAUG [C35G A40U G71A C87U G136U U148G],≤ -4.2
12,GGAUCUUCUCGAUCUAACAAAAAAGACAAAUCUGCCACAAAGCUUGAGAGCAUCUUCGGAUGCAGAGGGGGCGGCCUUCGGUGGCGCGAUAGCGCCAACGUUCUCAACUAUGACACGCAAAACGCGUGCUCCGUUGAAUGGAGUUUAUCAUG [C69G A73G],-2.59
13,GGAUCUUCUCGAUCUAACAAAAAAGACAAAUCUGCCACAAAGCUUGAGAGCAUCUACGGAUGCAGAGGCGGCAGCCUUCGGUGGCGCGAUAACGCCAACGUUCUCAACUAUGACACGCAAAACGCGUGCUCCGUUGAAUGGAGUUUAUCGUG [U56A G92A A150G],-2.08
14,GGAUCUUCUCGAGCUAACAAAAAAGACAAAUCUGCCACAAAGCUUGAGAGCAUCUUCGGAUGCAGAGGCGGCAGCCUUCGGAGGCGCGAUAGCGCUAACGUUCUCAACUAUGACACGCAAAACGCGUGCACCGUUGAAUGGAGUUUAUCAUG [U13G U82A C96U U130A],-3.83
15,GGAUCUUCUCGAUCUGACAAAAAAGACAAAUCUGCCACAAAGCUUGAGAGCAUCUUCGGAUGCAGAGGCGGCAGCCUUCGGUGGGGCGAUAGCGCCAACGUUCUCAACUAUGACACGCAAAACGCGUGCUCCGUUGAAUGGAGUUUAUCAUG [A16G C85G],-2.6
16,GGAUCUUCUCGAUCUAACAUAAAAGACAAAUCUGCCACAAAGCUUGAGAGCAUCUUCGGAAGCAGAGGCGGCAGUCUUCGUUGGCGCGAUAGCGCCAAGGUUCUCAACUAUGACACGCAAAACGCGUGCUCCGUUGAAUGGAGUUUAGCAUG [A20U U61A C75U G81U C99G U148G],≤ -4.2
17,GGAUCUUCUCGAUCUAACAAAAAAGACAAAUCUGCAACAAAGCUUGAGAGCAUCUUCGGAGGCCGAGGCGGCAGCCUUCGGUGGCGCGAUAGCGCCAACGUUCUCAACUAUGACACGAAAAACGCGUGCUCCGUUGAAUGGAGUUUCUCAUG [C36A U61G A64C C118A A147C],≤ -4.2
18,GGAUCUUCUCGAUCUAACAAAAAAGACAAAUCUGCCACAAAGCUUGAGAGCAUCUUCGGAUGCAGAGGCGGCAGCCUUCGGUGGCGCGAUAGCGCCAACGUUCUCCACUAUGACACGCAAAACGCGUGCUCCGUUGAAUGUAGUUUAUCAUG [A106C G141U],0.961
19,GGAUCUUCUCGAUCUAACAAAAUAGACAAAUCUGCCACAAAGUUUGAGAGCAUCUUCGGAUGCAGAGGCGGCUGCCUUCGGUGGAGCGAUAGCGCCCACGUUCUGAACUAUGACACGCAAAACGCGUGCUCCGUUGAAUUGAGUUUAUCAUG [A23U C43U A73U C85A A97C C105G G140U],≤ -4.2

row,Variant,polymerase ribozyme fitness (log ratio)
1,GGAUCUUCUCGAUCUAACAAAAAAGACAAAUCUGCCACAAAGCUUGAGAGCAUCUUCGGAUGCAGAGGCGGCAGGCUUCGGUGGAGCGAUAGCGCCAACGUUUUCAGCUAUGACACGCAAACCGCGUGCUCCGUUGAAUGGAGUUUAUCAUG [C75G C85A C103U A107G A122C],≤ -4.2
2,GGAUCUUAUCGAUCUAACAAAAAUGACAAAUCUGCCACAAAGCUUGAGAGCAUCUUCGGAUGCAGAGGCGACAGCCUUCGGUGACGCGAUAGCGCCAACGUUCUCAACUAUGACACGCAAAACGCGUGCUCCGUUGAAUGGACUUUAUCAUG [C8A A24U G71A G84A G143C],≤ -4.2
3,GGAUCUUCUCGGUCUAACGAAAAAGACAAAUCUGCCACAACGCUUGAGAGCAUCUUCGGAUGCAGAGGCGGCAGCCUUCGGUGGCGCGAUAGCGUCAACGUUCUCAACUAUGACACGCAAAACGCAUGCUCCGUUGAAUGGAGUUUAUCAUG [A12G A19G A41C C95U G126A],-1.94
4,GGAUCUUCUCGAUCUAACAAAAAAGACAAAUCUGCCACAAAGCUUGAGAGCAUCAUCGGAUGCAGAGGCGGCAGCCUUCGGUGGCGCGAUAGCGCCAACGUUCUCAACUAUGACACGCAAAACGCGAGCUCCGUUGAAUGGUGUUUAUCAUG [U55A U127A A142U],≤ -4.2
5,GGAUCUUCUCGAUCUAACAAAAAAGACAAAUCUGCCACAAAGCUUGUGAGCAUCUUCGGAUGCAGAGGCGGCAGCCUUCGGUGGCGCGAUAGCGCCAACGUUGUCAACUAUGACGCGCAAAACGCGUGCUCCGUUGAAUCGAGUUUAUCAUG [A47U C103G A115G G140C],≤ -4.2
6,GGUUCUUCUCGAUCUAACAAAAAAGACAAAUCUGCCACAAAGCUUGAGAGCAUCUUCGGAUGCAGAGGCGGCAGCCUUCGGUGGCGCGCUAGCGACAACGUUCUCAACUCUGACACGCAAAACGCGUGCUCCGUUGAAUGGAGUUUAUCAUG [A3U A89C C95A A110C],≤ -4.2
7,GGAGCUUCUCGAUCUAACAAAAAAGACAAGUCUGCCACAAAGCUUGAGAGCAUCUUCGGAUGCAGAGGCGGCAGCCUUCGGUGGCGCGAUGGCCCCAACGUUCUCAACUAUGACACGCAAAACGCGUUCUCAGUUGAAUGGAGUUUAUCAUG [U4G A30G A91G G94C G128U C132A],≤ -4.2
8,GGAUCUUCUCGAUCUAAGAAAAAAGACAAAUCUGCCACAAAGCUUGAGAGCAUCUUCGGAUGCAGAGGCGGCAGCCUUCGGUGGCGCGAUAGCGCUAACGUUCUCAACUAUGACACGCUAAACGCGUGCUCCGUUGAAUGGAGUUUAUCAUG [C18G C96U A119U],-0.786
9,GGAUCUUCUCGAUCUAACAAAAAAGACAAAUCUGCCACAUAGCUUGAGAGCAUCUUCGGAUGCAGAGGCGGCAGCCUUCGGUGGCGCGAUAUCGCCAACGUUCUCAACUAUGACACGCGAAACGCGUGCUCCGUUGAAUGGAGUUUAUCAUG [A40U G92U A119G],-0.619
10,GGAUCUUCUCGAUCUAACAAAGAAGACAAAUCUGCCACAAAGCUUGAGAGCAUCUUCGGAUGCAGAGGCGGCUGCCUUCGGUGGCGUGAUAGCGCCAACGUUCUCAACUAUGACACGCAAAACGCGUGCUCCGUUGAAUGGAGUUUAUCAUG [A22G A73U C87U],-3.05
11,GGAUCUUCUCGAUCUAACAAAAAAGACAAAUCUGCCACAAAGCUUGAGAGCAUCUUCGGAUGCAGAGGUGGCAGCCUUCGGUGGCGAGAAAGCGCCAACGUUCUCAACUAUGACACUCAAAACGCGUGCUCCGUUGAAUGGAGUUUAUCAUG [C69U C87A U90A G117U],≤ -4.2
12,GGAUCUUCUCGAUCUAACAAAAAAGACAAAUCUGCCACAAAGCUUGAGGGCAUCUUCGGAUGCAGAGGCGGCAGCCUUCGGUGGCGGGAUAGCGCCAACGUUCUCAACUAUGACACGCAAAACGCGUGCUCCGUUGAAUGGAGUUUAUCAUG [A49G C87G],-4.02
13,GGUUCUUCUCGAUCUAAGAAUAAAGACAAAUCUGCCACAAAGCUUGAGAGCAUCUUUGGAUGCAGAGGCGGCAGCCUUCGGUGGUGCGAUAGCACCAACGUUCUCAACUAUGACACGCAAUACGCGUGCUCCGUUGAAUGGAGUUUAUCAUG [A3U C18G A21U C57U C85U G94A A121U],-1.04
14,GGAUCUUCUCGAUCUAACAAAAAAGACAAAUCUGCCACAUAGCUUGAGAGCAUCUUCAGAUGCAGAGGCGGCAGCCUUCGGUGGCGCGAUAGCGCCAACGUUCUCAACUAUGACACGCAAAACGCGUGCUCCGUUGAAUGGAGUUUAUCAUG [A40U G58A],0.274
15,GGAUCUUCUCGAUCCAACAAAAAAGACAAAUCUGCCACAAAGCUUGAGAGCAUUUUCGGAUGCAGAGGCGGCAGCCUUCGGUGGCGCGAUAGCGCCAACGUUCUCAACUAUGACACGCAAAACGCGUGCUCCGUUGAAUGGAGUUUAUCAUG [U15C C54U],0.268
16,GGAUCUUCUCGAUCUAACAAAAAAGACAAAUCUGCCACAAAGCUUGAGAGCAUCAUCGGAUGCAGAGGCGGCAGCGUUCGGUGGAGCGAUAGCGCCAACGUUCUCAACUAUGUCACGCAAAACGCGUACUCCGUUGAAUGGAGUUUAUCAUG [U55A C76G C85A A113U G128A],≤ -4.2
17,GGAUCUUCUCGAUCUAACAAAAAAGACAAAUCUGCCACAAAGCUUGAGAGCAUCUUCGGAUGCAGAGGCGGCAGUCUUCGGUGGCGCGAUAGCGCCAACGUUCUCAACUAUGACACGCAAAACGCGUGCUCCGUUGAAUGAAGUUUAUCAUG [C75U G141A],-0.767
18,GGAUCUUCUCGAUCUAACAAAAAAGACUAAUCUGCCACAAAGCUUGAGAGACUCUUCGGAUGCAGAGGCGGCAGCUUGCGGUGGCGCGGUAGCGCCAACGUUCUCAACUAUGACACGCAAAACGCGUGCUCCGUUGAAUGGAGUUUAUCAUG [A28U C51A A52C C76U U78G A89G],≤ -4.2
19,GGAUCUUCUCGAUCUAACAAAAAAGACAAAUCUGCCACAAAGCUUGAGAGGAUCUUCGGAUGCAGAGGCGGCAGCCUUCGUUGGCGCGAUAGCGCUAACGUUCUCAACUAUGACACGCAAAACGCGUGCUCCGUUGAAUGGAGUUUAUCAUG [C51G G81U C96U],-1.16

# Source: the RNAGym collection of RNA variant scans (doi:10.1073/pnas.2313332121)
